Tests used:
[1] = molecular target: T1, recombinant human PD-1-His protein (ECD) (human, UniProt Q15116 25-170); test: SPR, purified hybridoma antibody, recombinant human PD-1-His (ECD)
T1 construct: extracellular domain; Used as ELISA coat and SPR partner; also called rhprotein; antigen; not shown: His tag

[2] = molecular target: T2, human PD-1 expressed on cells (human, UniProt Q15116 25-288); test: cell-based or functional assay
[3] = molecular target: T1, recombinant human PD-1-His protein (ECD); test: SPR, purified antibody, PD-1 antigen
[4] = molecular target: T2, human PD-1 expressed on cells; test: flow cytometry on cells overexpressing hPD-1
[5] = molecular target: T1, recombinant human PD-1-His protein (ECD); test: SPR; number in the sensorgram panel without name or unit, taken as KD in M because 5.789e-9 stands for 5.8 nM in FIG 9d
[6] = molecular target: T1, recombinant human PD-1-His protein (ECD); test: Q-ELISA of purified antibody on recombinant human PD-1-His, drawn table
Method: For ELISA, the recombinant human PD-1-His protein was O/N coated on a 96-well ELISA plate at 4° C., and blocked with 5% non-fat skim milk at RT for 1 hr. […]

[7] = molecular target: T2, human PD-1 expressed on cells; test: flow cytometry on hPD-1/293 cells, 2nd-hIgG-PE detection; Ctl 2nd-hIgG 0.17, cell only 0.03
Excerpt: In addition, each purified humanized antibody was bound to 293 cells expressing human PD-1 and analyzed by flow cytometry.

[8] = molecular target: T2, human PD-1 expressed on cells; test: flow cytometry on activated hCD8 T cells from human blood, 2nd-hIgG-PE detection; 2nd-hIgG-PE alone 1.73
[9] = molecular target: T2, human PD-1 expressed on cells; test: cell-based or functional assay; remark: listed apart in the source
[10] = molecular target: T1, recombinant human PD-1-His protein (ECD); test: SPR; number in the sensorgram panel without name or unit, taken as KD in M because 8.999e-9 stands for 9 nM in FIG 9d

T2 sequence (Q15116 25-288): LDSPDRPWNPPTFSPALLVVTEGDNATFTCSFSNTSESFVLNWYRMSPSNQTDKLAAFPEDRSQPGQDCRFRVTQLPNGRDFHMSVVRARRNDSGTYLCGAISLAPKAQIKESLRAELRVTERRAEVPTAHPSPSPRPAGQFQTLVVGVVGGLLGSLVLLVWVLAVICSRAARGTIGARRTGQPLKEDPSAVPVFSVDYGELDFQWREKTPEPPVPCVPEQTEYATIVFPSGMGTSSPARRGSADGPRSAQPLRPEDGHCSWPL
T1 sequence (Q15116 25-170): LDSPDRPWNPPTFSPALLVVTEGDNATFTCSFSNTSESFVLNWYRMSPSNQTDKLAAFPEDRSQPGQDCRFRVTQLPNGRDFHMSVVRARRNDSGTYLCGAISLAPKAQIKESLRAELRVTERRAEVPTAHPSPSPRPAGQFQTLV

B1: 2-7C5 hybridoma antibody (antibody, V domains shown)
VH: EVQLVESGGGLVQPVGSLKLSCAASGFTFSSFGMSWVRQTPDKRLELVATIYSNGDYTYYPDSVKGRFTVSRDNAKNTLYLQMSSLKSEDTAMYYCARYYGNYGGYFDYWGQGTTLTVSS
VL: SIVMTQTPKFLLVSAGDRVTITCKASQSVSNDVAWYQQKPGQSPKLLIYYASNRYTGAPDRFTGSGYGTDFTFTISTVQAEDLAVYFCQQDYSSPPTFGGGTKLEIK
notes: Mouse hybridoma antibody
B1 showed a Kd [1] of 17.1 nM, a koff [1] of 0.00127 s⁻¹ and a kon [1] of 74200 M⁻¹ s⁻¹. The “IC50 (read off the curve); PD-1/PD-L1 blocking reporter assay, fold induction” value [2] was ~3 µg/mL.

B2: 4-8D4 hybridoma antibody (antibody, V domains shown)
VH: QVQLQQSGAELAKPGASVKMSCKASGYTFTTYWIHWVKQRPGQGLEWIGYINPTTGYTEYNQKFKDKATLTADKSSNTAYMQLSSLTSEDSAVYYCARGVRYYFDYWGKGTTLTVSS
VL: DIVMSQSPSSLAVSAGEKVTMSCKSSQSLLDSRTRKNYLAWYQQKPGQSPKLLIYWASTRESGVPDRFTGSGSGTDFTLTISSVKAEDLAVYLCKQSYNLITFGAGTKLELK
notes: Mouse hybridoma antibody
B2 was tested, and the Kd [1] was 15.9 nM, the koff [1] was 0.00106 s⁻¹ and the kon [1] was 66700 M⁻¹ s⁻¹. The “IC50 (read off the curve); PD-1/PD-L1 blocking reporter assay, fold induction” value [2] was ~3 µg/mL.

B3: humanized antibody 2B3W (antibody, V domains shown)
VH: EVQLVESGGGLVQPGGSLRLSCAASGFVFSNYDMSWVRQAPGKGLEWVAYITIGGGTTYYPDTVKGRFTISRDNAKNSLYLQMNSLRAEDTAVYYCARWVYDPLYAMDYWGQGTTVTVSS
VL: DIVLTQTPLSLSVTPGQPASISCRASESVDNYGISFMNWFLQKPGQPPQLLIYAASNQGSGVPDRFSGSGSGTDFTLKISRVEAEDVGVYYCQQSKEVPWTFGQGTKVEIK
notes: Humanized antibody made in Expi293 cells
For B3, the Kd [3] was 13.4 nM, the koff [3] was 0.00271 s⁻¹ and the kon [3] was 203000 M⁻¹ s⁻¹. For the same binder, the “percent of cells in the positive quadrant” value (from here on “percent of cells”) [4] was 95.6%, the Kd [5] was 428 nM and the “OD=405, row 1 of 8 (1/2 serial dilution from 500ng)” value [6] was 3.17. The “OD=405, row 2 of 8 (1/2 serial dilution from 500ng)” value [6] was 3.15, the “OD=405, row 3 of 8 (1/2 serial dilution from 500ng)” value [6] was 3.2 and the “OD=405, row 4 of 8 (1/2 serial dilution from 500ng)” value [6] was 3.13. For the same binder, the “OD=405, row 5 of 8 (1/2 serial dilution from 500ng)” value [6] was 2.92, the “OD=405, row 6 of 8 (1/2 serial dilution from 500ng)” value [6] was 2.45 and the “OD=405, row 7 of 8 (1/2 serial dilution from 500ng)” value [6] was 1.7. The “OD=405, row 8 of 8 (1/2 serial dilution from 500ng)” value [6] was 1.09, the “percent of cells” value [7] was 94.7% and the “percent of cells” value [8] was 9.77%.

B4: T14-01 (antibody, V domains shown)
VH: EVQLVESGGGLVQPGGSLRLSCAASGFVFSNYDMSWVRQAPGKGLEWVAYITIGGGTTYYPDTVKGRFTISRDNAKNSLYLQMNSLRAEDTAVYYCARWVYDPLYAMDYWGQGTTVTVSS
VL: DIVLTQTPLSLSVTPGQPASISCRASESVTDYGISFMNWFLQKPGQPPQLLIYAASNQGSGVPDRFSGSGSGTDFTLKISRVEAEDVGVYYCQQSKEVPWTFGQGTKVEIK
In the case of B4, the “percent of cells” value [4] is reported as 96.8% and the “percent of cells” value [8] is reported as 17.4%.

B5: T14-02 (antibody, V domains shown)
VH: EVQLVESGGGLVQPGGSLRLSCAASGFVFSNYDMSWVRQAPGKGLEWVAYITIGGGTTYYPDTVKGRFTISRDNAKNSLYLQMNSLRAEDTAVYYCARWVYDPLYAMDYWGQGTTVTVSS
VL: DIVLTQTPLSLSVTPGQPASISCRASESVDNYGISFMNWFLQKPGQPPQLLIYAASNQGSGVPDRFSGSGSGTDFTLKISRVEAEDVGVYYCQQSEEVPWTFGQGTKVEIK
With B5 the “percent of cells” value [4] was 96% and the “percent of cells” value [8] was 11.8%.

B6: T14-03 (antibody, V domains shown)
VH: EVQLVESGGGLVQPGGSLRLSCAASGFVFSNYDMSWVRQAPGKGLEWVAYITIGGGTTYYPDTVKGRFTISRDNAKNSLYLQMNSLRAEDTAVYYCARWVYDPLYAMDYWGQGTTVTVSS
VL: DIVLTQTPLSLSVTPGQPASISCRASESVTDYGISFMNWFLQKPGQPPQLLIYAASNQGSGVPDRFSGSGSGTDFTLKISRVEAEDVGVYYCQQSEEVPWTFGQGTKVEIK
With B6 the “percent of cells” value [4] was 90.9% and the “percent of cells” value [8] was 9.55%.

B7: T14-04 (antibody, V domains shown)
VH: EVQLVESGGGLVQPGGSLRLSCAASGFVFSNYDMSWVRQAPGKGLEWVAYITIGGGTTYYPDTVKGRFTISRDNAKNSLYLQMNSLRAEDTAVYYCARWRYDPLFAMDYWGQGTTVTVSS
VL: DIVLTQTPLSLSVTPGQPASISCRASESVDNYGISFMNWFLQKPGQPPQLLIYAASNQGSGVPDRFSGSGSGTDFTLKISRVEAEDVGVYYCQQSKEVPWTFGQGTKVEIK
In the case of B7, the “percent of cells” value [4] is reported as 95%, the “EC50 (read off the curve); PD-1/PD-L1 Blockade Bioassay, luciferase RAU” value [9] is reported as ~0.8 µg/mL and the “percent of cells” value [8] is reported as 17.1%.

B8: T15-02 (antibody, V domains shown)
VH: EVQLVESGGGLVKPGGSLRLSCAASGFTFSSFGMSWVRQAPGKGLELVATIYSNGDYTYYPDSVKGRFTVSRDNAKNSLYLQMNSLRAEDTAVYYCARYYGNYGGYFDYWGQGTLVTVSS
VL: AIQMTQSPSSLSASVGDRVTITCKASQSVSNDVAWYQQKPGKAPKLLIYYASNRYTGVPSRFSGSGSGTDFTLTISSLQPEDFATYYCQQDFWYPPTFGGGTKVEIK
In the case of B8, the “percent of cells” value [4] is reported as 96.9% and the “percent of cells” value [8] is reported as 19.3%.

B9: T15-03 (antibody, V domains shown)
VH: EVQLVESGGGLVKPGGSLRLSCAASGFTFSSFGMSWVRQAPGKGLELVATIYSNGDYTYYPDSVKGRFTVSRDNAKNSLYLQMNSLRAEDTAVYYCARYYGNYGGYFDYWGQGTLVTVSS
VL: AIQMTQSPSSLSASVGDRVTITCKASQSVSNDVAWYQQKPGKAPKLLIYYAYMRYTGVPSRFSGSGSGTDFTLTISSLQPEDFATYYCHQDYSSPPTFGGGTKVEIK
B9 was tested, and the “percent of cells” value [4] was 96.7%, the “EC50 (read off the curve); PD-1/PD-L1 Blockade Bioassay, luciferase RAU” value [9] was ~1 µg/mL and the “percent of cells” value [8] was 10.7%.

B10: T15-04 (antibody, V domains shown)
VH: EVQLVESGGGLVKPGGSLRLSCAASGFTFSSFGMSWVRQAPGKGLELVATIYSNGDYTYYPDSVKGRFTVSRDNAKNSLYLQMNSLRAEDTAVYYCARYYGNYGGYFDYWGQGTLVTVSS
VL: AIQMTQSPSSLSASVGDRVTITCKASQSVSNDVAWYQQKPGKAPKLLIYYAYMRYTGVPSRFSGSGSGTDFTLTISSLQPEDFATYYCQQDYSSPPTFGGGTKVEIK
With B10 the “percent of cells” value [4] was 96.6% and the “percent of cells” value [8] was 12.4%.

B11: T15-05 (antibody, V domains shown)
VH: EVQLVESGGGLVKPGGSLRLSCAASGFTFSSFGMSWVRQAPGKGLELVATIYHSRDYTYYPDSVKGRFTVSRDNAKNSLYLQMNSLRAEDTAVYYCARYYGNYGGYFDYWGQGTLVTVSS
VL: AIQMTQSPSSLSASVGDRVTITCKASQSVSNDVAWYQQKPGKAPKLLIYYASNRYTGVPSRFSGSGSGTDFTLTISSLQPEDFATYYCQQDYSSPPTFGGGTKVEIK
For B11, the “percent of cells” value [4] was 97.5% and the “percent of cells” value [8] was 16.1%.

B12: humanized antibody 8D4 (antibody, V domains shown)
VH: QVQLVQSGAEVKKPGASVKVSCKASGYTFTTYWIHWVRQAPGQGLEWIGYINPTTGYTEYNQKFKDRATLTADKSTSTAYMELSSLRSEDTAVYYCARGVRYYFDYWGKGTTVTVSS
VL: DIVMTQSPDSLAVSLGERATINCKSSQSLLDSRTRKNYLAWYQQKPGQPPKLLIYWASTRESGVPDRFSGSGSGTDFTLTISSLQAEDVAVYYCKQSYNLITFGQGTKLEIK
notes: Humanized antibody
Work on B12 yielded a Kd [3] of 29.6 nM, a koff [3] of 0.00176 s⁻¹ and a kon [3] of 59400 M⁻¹ s⁻¹. For the same binder, the “percent of cells” value [4] was 96.2%, the “OD=405, row 1 of 8 (1/2 serial dilution from 500ng)” value [6] was 3.35 and the “OD=405, row 2 of 8 (1/2 serial dilution from 500ng)” value [6] was 3.31. The “OD=405, row 3 of 8 (1/2 serial dilution from 500ng)” value [6] was 3.33, the “OD=405, row 4 of 8 (1/2 serial dilution from 500ng)” value [6] was 3.26 and the “OD=405, row 5 of 8 (1/2 serial dilution from 500ng)” value [6] was 2.95. For the same binder, the “OD=405, row 6 of 8 (1/2 serial dilution from 500ng)” value [6] was 2.41, the “OD=405, row 7 of 8 (1/2 serial dilution from 500ng)” value [6] was 1.61 and the “OD=405, row 8 of 8 (1/2 serial dilution from 500ng)” value [6] was 0.975. The Kd [10] was 18.5 nM and the “percent of cells” value [7] was 96.1%.

B13: 8D4-T16-02 (antibody, V domains shown)
VH: QVQLVQSGAEVKKPGASVKVSCKASGYTFTTYWIHWVRQAPGQGLEWIGYINPTTGYTEYNQKFKDRATLTADKSTSTAYMELSSLRSEDTAVYYCARGVRYYFDYWGKGTTVTVSS
VL: DIVMTQSPDSLAVSLGERATINCKSSQSLLDSRTRKNYLAWYQQKPGQPPKLLIYWASTRESGVPDRFSGSGSGTDFTLTISSLQAEDVAVYYCQQQYDPPITFGQGTKLEIK
notes: Engineered clone of humanized 8D4; also called T1-02
In the case of B13, the “percent of cells” value [4] is reported as 95.5% and the Kd [10] is reported as 1800 nM.

From patent US20250270320A1 (EUTILEX, published 2025)
